Experimental data from patent US20250171532A1 (NB HEALTH LABORATORY, published 2025).

Experiments:
human LPA1 [1] = biological target: T1, human LPA1 (human, UniProt Q92633 1-364); test: flow cytometry, human LPA1-stably expressing CHO cells, median fluorescence intensity
T1 construct: Untagged, on human LPA1-stably expressing CHO cells (CHO-K1); also the endogenous receptor on the human lung fibroblast line printed as IMIR-90; also called human lysophosphatidic acid receptor 1; hLPA1
Excerpt: (§1) The human LPA1-stably expressing CHO cell and the mouse LPA1-stably expressing CHO cell were washed with PBS, then detached from the cell culture dishes by an enzyme-free cell dissociation buffer (Thermo Fisher Scientific, Inc.), then washed with PBS, and then collected by centrifugation. The human LPA1-stably expressing CHO cell and the mouse LPA1-stably expressing CHO cell were suspended at 1×10⁷ cells/mL in Fc Block (Sci-Tech Biosciences, Inc.) diluted by 500 times in FACS buffer, and then allowed to stand at 4° C. for 30 minutes to block the cells. The cells were collected by centrifugation and suspended in FACS buffer at 4×10⁶ cells/mL, and this suspension was dispensed into a V-bottom 96-well plate (Thermo Fisher Scientific, Inc.) at 25 μL (1×10⁵ cells)/well. As primary antibodies, the eleven types of LPA1 antibodies produced and purified by the method described above and a mouse isotype control antibody (Fujifilm Wako Pure Chemicals Corporation) were diluted stepwise, which was added to each well at 25 μL/well, and allowed to stand at 4° C. for 1 hour. The cells were collected by centrifugation and washed with 120 μL of FACS buffer. This washing operation was repeated twice. To the cell sediment, 25 μL each of Goat Anti-Mouse IgG H&L (DyLight 650) (Abcam) that was a secondary antibody diluted by 500 times in FACS buffer was dispensed, then suspended, and then allowed to stand at 4° C. for 1 hour. The cells were washed twice, then suspended in 50 μL of FACS buffer, and the binding of antibodies to the cells was measured using a flow cytometer (Agilent Novocyte).
(§2) A graph was created, in which a concentration of the antibody was plotted on the […] axis, and a median fluorescence intensity of the flow cytometer histogram was plotted on the horizontal axis. All of the eleven antibodies were confirmed to dose-dependently bind to the human LPA1-stably expressing CHO cell and the mouse LPA1-stably expressing CHO cell. The results of the binding of each antibody to the human LPA1-stably expressing CHO cell are presented in FIG. 2A to FIG. 2K, and the results of the binding of each antibody to the mouse LPA1-stably expressing CHO cell are presented in FIG. 3A to FIG. 3K.

[2] = biological target: T2, human LPA2 with FLAG tag (human LPA2 gene transfected cell) (human, UniProt Q9HBW0 1-348); test: flow cytometry, transfected HEK293FT cells, histogram shift
T2 construct: also called EDG4; not shown: FLAG tag added at the 5' terminal of the gene
Procedure: (§3) BTEK293FT cell was transfected with 10 μg of an expression vector carrying each synthetic gene using Lipofectamine 2000, to prepare a human LPA1 gene transfected cell, a mouse LPA1 gene transfected cell, a human LPA2 gene transfected cell, a mouse LPA2 gene transfected cell, a human LPA3 gene transfected cell, and a mouse LPA3 gene transfected cell.
(§4) The next day, the cells were washed with PBS, then detached from the cell culture dishes by an enzyme-free cell dissociation buffer (Thermo Fisher Scientific, Inc.), then washed with PBS, and then collected by centrifugation. Goat serum (Thermo Fisher Scientific, Inc.) was diluted by 2 times in FACS buffer (PBS containing 1% o of FBS), into which the cells were suspended at 1×10⁷ cells/mL. This suspension was allowed to stand at 4° C. for 30 minutes to block the cells. The cells were collected by centrifugation and suspended in FACS buffer at 4×10⁶ cells/mL, and this suspension was dispensed into a V-bottom 96-well plate (Thermo Fisher Scientific, Inc.) at 25 μL (1×10⁵ cells)/well.
(§5) The cells were collected by centrifugation and washed with 120 μL of FACS buffer. This washing operation was repeated twice. To the cell sediment, 25 μL each of Goat Anti-Mouse IgG H&L (DyLight 650) (Abcam) that was a secondary antibody diluted by 500 times in FACS buffer was dispensed, then suspended, and then allowed to stand at 4° C. for 1 hour. The cells were washed twice, then suspended in 50 μL of FACS buffer, and the whole content thereof was transferred to a V-bottom 96-well plate (Greiner), to measure the binding of antibodies to the cells using a flow cytometer (Agilent Novocyte).

[3] = biological target: T3, mouse LPA2 with FLAG tag (mouse LPA2 gene transfected cell) (mouse, UniProt Q9JL06 1-348); test: as above
T3 construct: not shown: FLAG tag added at the 5' terminal of the gene
Procedure: as §3, §4, §5

[4] = biological target: T4, human LPA3 with FLAG tag (human LPA3 gene transfected cell) (human, UniProt Q9UBY5 1-353); test: as above
T4 construct: also called EDG7; not shown: FLAG tag added at the 5' terminal of the gene
T4 sequence: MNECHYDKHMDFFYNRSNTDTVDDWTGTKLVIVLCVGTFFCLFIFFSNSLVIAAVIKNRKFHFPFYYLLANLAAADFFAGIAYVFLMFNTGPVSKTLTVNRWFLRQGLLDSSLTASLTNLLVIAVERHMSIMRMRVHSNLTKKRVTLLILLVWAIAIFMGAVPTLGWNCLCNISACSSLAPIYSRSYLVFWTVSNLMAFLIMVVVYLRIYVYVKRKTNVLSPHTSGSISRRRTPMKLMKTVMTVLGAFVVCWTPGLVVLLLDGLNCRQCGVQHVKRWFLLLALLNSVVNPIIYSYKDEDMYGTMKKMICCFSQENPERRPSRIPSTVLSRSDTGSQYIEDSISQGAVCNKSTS
Procedure: as §3, §4, §5

[5] = biological target: T5, mouse LPA3 with FLAG tag (mouse LPA3 gene transfected cell) (mouse, UniProt Q9EQ31 1-354); test: as above
T5 construct: not shown: FLAG tag added at the 5' terminal of the gene
T5 sequence: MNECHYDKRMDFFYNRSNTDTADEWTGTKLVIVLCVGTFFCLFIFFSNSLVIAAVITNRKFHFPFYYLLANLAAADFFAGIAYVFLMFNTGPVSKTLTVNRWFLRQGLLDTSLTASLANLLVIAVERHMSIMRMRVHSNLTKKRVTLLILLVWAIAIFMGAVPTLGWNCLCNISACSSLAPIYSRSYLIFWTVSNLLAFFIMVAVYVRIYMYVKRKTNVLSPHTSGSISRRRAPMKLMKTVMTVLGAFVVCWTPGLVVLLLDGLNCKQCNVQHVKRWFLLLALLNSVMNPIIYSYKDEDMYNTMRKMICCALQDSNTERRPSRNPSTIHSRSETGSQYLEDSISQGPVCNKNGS
Procedure: as §3, §4, §5

human LPA1 [6] = biological target: T1, human LPA1; test: cell-based or functional assay
mouse LPA1 [7] = biological target: T6, mouse LPA1 (mouse, UniProt P61793 1-364); test: flow cytometry, mouse LPA1-stably expressing CHO cells, median fluorescence intensity
T6 construct: Untagged, on mouse LPA1-stably expressing CHO cells (Flp-In-CHO); also called mLPA1
Excerpt: as §1, §2

mouse LPA1 [8] = biological target: T6, mouse LPA1; test: cell-based or functional assay
human LPA1 [9] = biological target: T1, human LPA1; test: cell-based or functional assay; remark: listed apart in the source

T2 sequence (Q9HBW0 other isoform, or with tags, fused parts or gaps): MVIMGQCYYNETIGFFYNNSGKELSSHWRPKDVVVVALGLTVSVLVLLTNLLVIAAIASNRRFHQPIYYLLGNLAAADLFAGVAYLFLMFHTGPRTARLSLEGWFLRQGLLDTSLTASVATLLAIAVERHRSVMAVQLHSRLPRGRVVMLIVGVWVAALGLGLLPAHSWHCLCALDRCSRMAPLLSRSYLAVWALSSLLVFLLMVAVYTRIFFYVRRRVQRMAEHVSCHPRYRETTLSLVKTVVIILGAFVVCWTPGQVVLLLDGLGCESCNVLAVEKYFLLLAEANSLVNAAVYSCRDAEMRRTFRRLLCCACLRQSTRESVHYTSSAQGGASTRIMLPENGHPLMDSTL
T6 sequence (P61793 whole entry): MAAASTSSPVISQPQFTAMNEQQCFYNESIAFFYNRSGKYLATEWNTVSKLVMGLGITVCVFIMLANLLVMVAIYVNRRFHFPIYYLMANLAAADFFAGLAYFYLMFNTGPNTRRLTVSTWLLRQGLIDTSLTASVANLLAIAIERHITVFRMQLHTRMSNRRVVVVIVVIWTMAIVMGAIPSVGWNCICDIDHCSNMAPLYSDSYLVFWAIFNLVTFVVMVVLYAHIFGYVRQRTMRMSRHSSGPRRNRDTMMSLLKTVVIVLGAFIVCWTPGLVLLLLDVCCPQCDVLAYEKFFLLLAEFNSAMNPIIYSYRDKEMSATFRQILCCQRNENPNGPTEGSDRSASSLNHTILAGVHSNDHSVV
T1 sequence (Q92633 whole entry): as the sequence (P61793 whole entry) above, with A4I, S8I, Q22P, Y40H, V61I, D193E, H194N, V269I, N331S, N335T counted along it
T3 sequence (Q9JL06 whole entry): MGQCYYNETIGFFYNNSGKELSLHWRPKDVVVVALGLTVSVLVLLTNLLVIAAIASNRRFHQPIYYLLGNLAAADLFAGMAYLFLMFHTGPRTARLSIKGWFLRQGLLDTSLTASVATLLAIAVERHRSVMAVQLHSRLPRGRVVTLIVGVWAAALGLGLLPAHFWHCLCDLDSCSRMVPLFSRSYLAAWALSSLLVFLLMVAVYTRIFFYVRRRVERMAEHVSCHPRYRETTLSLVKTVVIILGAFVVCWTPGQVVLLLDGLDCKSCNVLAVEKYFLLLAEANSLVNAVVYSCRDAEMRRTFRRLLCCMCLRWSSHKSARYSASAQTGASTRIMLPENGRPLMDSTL

B1: 210309-1-C (antibody, mouse IgG1, V domains shown)
VH: QVHLQQSGAELARPGASVKLSCKASGYSFTAYGISWVQQRTGQGLEWIGEIYPRSGNTYYSEKFKGKATLTADKSSSTAYMELRSLTSEDSAVYFCARESLLKRLGWYFDVWGTGTTVTVSS
VL: DIQMTQSPASLSASVGETVTITCRASQNIYSFLAWYQQKQGNSPQLLVYNAKTLAEGVPSRFSGSGSGTQFSLKINSLQPEDFGSYYCQHHYGPPLTFGVGTKLELK
notes: Mouse monoclonal from human LPA1 immunization
- EC50 (human LPA1 [1]): 1.7 nM
- binding result [2]: no binding (tested: 25 g/mL (so in the source))
- binding result [3]: no binding (tested: 25 g/mL (so in the source))
- binding result [4]: no binding (tested: 25 g/mL (so in the source))
- binding result [5]: no binding (tested: 25 g/mL (so in the source))
- Intracellular cAMP signaling inhibition IC50 (human LPA1 [6]): 25.1 nM
- EC50 (mouse LPA1 [7]): 1.8 nM
- Intracellular cAMP signaling inhibition (Inhibition rate %/100 nM) (mouse LPA1 [8]): 20%
- Intracellular cAMP signaling inhibition (Inhibition rate %/100 nM) (human LPA1 [9]): 47%

B2: 210420-1-H (antibody, mouse IgG1, V domains shown)
VH: QFQLQQSGAELARPGASVKLSCKASGYTFASFGISWVKQRTGQGLEYIGEIYPRSGTTYFNEKFRGKATLTADKSSSTAYMELRSLTSEDSAVYFCAREGVRRYAMDYWGQGTSVTVSS
VL: DIQVTQSPASLSASVGETVTITCRASGNIYSFLAWYQQKQGKSPQLLVYNAKTLAEGVPSRFSGSGSGTQFSLKISSLQPEDFGSYYCQHHYGIPLTFGGGTKLDLK
notes: Mouse monoclonal from mouse LPA1 immunization
- EC50 (human LPA1 [1]): 2.5 nM
- binding result [2]: no binding (tested: 25 g/mL (so in the source))
- binding result [3]: no binding (tested: 25 g/mL (so in the source))
- binding result [4]: no binding (tested: 25 g/mL (so in the source))
- binding result [5]: no binding (tested: 25 g/mL (so in the source))
- Intracellular cAMP signaling inhibition IC50 (human LPA1 [6]): 49.1 nM
- EC50 (mouse LPA1 [7]): 1.6 nM
- Intracellular cAMP signaling inhibition (Inhibition rate %/100 nM) (mouse LPA1 [8]): 37%
- Intracellular cAMP signaling inhibition (Inhibition rate %/100 nM) (human LPA1 [9]): 22%

B3: 210309-2-A (antibody, mouse IgG1, V domains shown)
VH: QVQLQQSGAELARPGASVKLSCKASGYTFTSYGISWVKQRTGQGLEWIGEIYPRSGNTYYNEKFKGRATLTADKSSSTAYMELRSLTSEDSAVYFCARESILLRLGWYFDVWGTGTTVTVSS
VL: DIQMTQSPASLSASVGGTVTITCRASENIYRFLAWYQQKQGKSPQLLVYNAKTLAEGVPSRFSGSGSGTQFSLKINSLQPEDFGIYYCQHHYGPPLTFGAGTKLELK
notes: as for B1
- EC50 (human LPA1 [1]): 1.4 nM
- binding result [2]: no binding (tested: 25 g/mL (so in the source))
- binding result [3]: no binding (tested: 25 g/mL (so in the source))
- binding result [4]: no binding (tested: 25 g/mL (so in the source))
- binding result [5]: no binding (tested: 25 g/mL (so in the source))
- Intracellular cAMP signaling inhibition IC50 (human LPA1 [6]): 21.8 nM
- EC50 (mouse LPA1 [7]): 2.1 nM
- Intracellular cAMP signaling inhibition (Inhibition rate %/100 nM) (mouse LPA1 [8]): 32%
- Intracellular cAMP signaling inhibition (Inhibition rate %/100 nM) (human LPA1 [9]): 32%

B4: 210310-1-D (antibody, mouse IgG1, V domains shown)
VH: QVQVQQSGAELARPGASVRLSCKASGYTFTSFGVNWVKQRTGQGLEWIGQIYPRTGTTYHNERFKGKATLTTDKSSSTAYMELRSLTSEDSAVYFCAREGDRYSLAYWGQGTLVTVSA
VL: DIQMTQSPASLSASVGETVTITCRASENIYRFLAWYQQKQGKSPQLLVYNAKTLVEGVPSRFSGSGSGTQFSLKINNLQPEDFGSYYCQHHYGIPLTFGAGTKLELK
notes: as for B1
- EC50 (human LPA1 [1]): 2.7 nM
- binding result [2]: no binding (tested: 25 g/mL (so in the source))
- binding result [3]: no binding (tested: 25 g/mL (so in the source))
- binding result [4]: no binding (tested: 25 g/mL (so in the source))
- binding result [5]: no binding (tested: 25 g/mL (so in the source))
- Intracellular cAMP signaling inhibition IC50 (human LPA1 [6]): 60.5 nM
- EC50 (mouse LPA1 [7]): 2.1 nM
- Intracellular cAMP signaling inhibition (Inhibition rate %/100 nM) (mouse LPA1 [8]): 25%
- Intracellular cAMP signaling inhibition (Inhibition rate %/100 nM) (human LPA1 [9]): 22%

B5: 211222-1-A (antibody, mouse IgG1, V domains shown)
VH: QVQVHQSGAELARPGASVRLSCKASGYTFTSFGVNWVKQRTGQGLEWIGQIYPRSGTTYHNERFKGKATLTADKSSSTAYMELRSLTSEDSAVYFCAREGDRYSLAYWGQGTLVTVSA
VL: DIQMTQSPASLSASVGETVTITCRASENIYRFLAWYQQKQGKSPQLLVSNAKTLAEGVPSRFSGSGSGTQFSLKINYLQPEDFGNYYCQHHYGIPLTFGAGTKLELK
notes: as for B1
- EC50 (human LPA1 [1]): 2.3 nM
- binding result [2]: no binding (tested: 25 g/mL (so in the source))
- binding result [3]: no binding (tested: 25 g/mL (so in the source))
- binding result [4]: no binding (tested: 25 g/mL (so in the source))
- binding result [5]: no binding (tested: 25 g/mL (so in the source))
- Intracellular cAMP signaling inhibition IC50 (human LPA1 [6]): 69.9 nM
- EC50 (mouse LPA1 [7]): 2 nM
- Intracellular cAMP signaling inhibition (Inhibition rate %/100 nM) (mouse LPA1 [8]): 30%
- Intracellular cAMP signaling inhibition (Inhibition rate %/100 nM) (human LPA1 [9]): 1%
